The numbers were not newly measured in paper PMC8844171 (Clinical Drug Investigation, 2022), which cites them from elsewhere.

Where two headings read alike, the source gives them in different places. Bounds are passed on as bounds.

In this data set the test system is patients with distal MCA or ICA occlusion.

B1: alteplase: standard thrombolytic treatment for AIS (protein, UniProt P00750 36-562, looked up)
Tissue-type plasminogen …: SYQVICRDEKTQMIYQQHQSWLRPVLRSNRVEYCWCNSGRAQCHSVPVKSCSEPRCFNGGTCQQALYFSDFVCQCPEGFAGKCCEIDTRATCYEDQGISYRGTWSTAESGAECTNWNSSALAQKPYSGRRPDAIRLGLGNHNYCRNPDRDSKPWCYVFKAGKYSSEFCSTPACSEGNSDCYFGNGSAYRGTHSLTESGASCLPWNSMILIGKVYTAQNPSAQALGLGKHNYCRNPDGDAKPWCHVLKNRRLTWEYCDVPSCSTCGLRQYSQPQFRIKGGLFADIASHPWQAAIFAKHRRSPGERFLCGGILISSCWILSAAHCFQERFPPHHLTVILGRTYRVVPGEEEQKFEVEKYIVHKEFDDDTYDNDIALLQLKSDSSRCAQESSVVRTVCLPPADLQLPDWTECELSGYGKHEALSPFYSERLKEAHVRLYPSSRCTSQHLLNRTVTDNMLCAGDTRSGGPQANLHDACQGDSGGPLVCLNDGRMTLVGIISWGLGCGQKDVPGVYTKVTNYLDWIRDNMRP
On to B1, for which the Recanalization rate is, setting by setting: (patients with ICA occlusion) less than 10%; (patients with distal MCA occlusion) “approximately 40%”.
